Results from PMC8232910.

Biological target: EccD5 (Mycobacterium xenopi ESX-5 type VII secretion system) (Mycobacterium xenopi)
Experiment: cryo-EM structure; purified ESX-5 complex (void peak fraction) in 20 mM tris (pH 8), 150 mM NaCl; C6 global map 3.4 Å and locally refined map of the cytosolic part 3.0 Å; de novo atomic model of the transmembrane and membrane-adjacent cytoplasmic regions

Q: “EccD5 (Mycobacterium xenopi ESX-5 type VII secretion system) (natural protein)” was tested. Which stoichiometry N did it give?
A: 2
